The nanobody polyreactivity screen of Harvey et al. (2022)

assay: yeast display, Sf9 membrane polyspecificity reagent, FACS + sequencing; frameworks hold sequencing errors
Procedure, shortened: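 Synthetic nanobody libraries on Saccharomyces cerevisiae BJ5465 were galactose-induced for 36–48 hours, stained 1 hour at 4 °C with 10% biotinylated, detergent-solubilized Sf9 membrane reagent and enriched on streptavidin microbeads. FACS then separated cells into low and high (top ~1%) gates by anti-HA (expression) and streptavidin (reagent binding) fluorescence. Genes were colony-PCR amplified, MiSeq 2 × 250 sequenced and CDR-length filtered. A clone's polyreactivity label is that of its gate of origin.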

| Sequence | polyreactivity (PSR sort gate) |
| --- | --- |
| QVHLVESGGGLVQAGGSLRLSCAASGRTFYSYVMGWYRQAPGKERELVAAISSTGGTYADSVKGRFTISRDNAKNTVYLQINSLKPEETAVYYCAAATPTGYKRGGYWGQGTQVTVSS | low polyreactivity |
| QDQLVESGGGLVQWGRSLGIRCAASGRIFNVKAMGWYRQAPGNEREFDAAISGSVGSTYYADSVKGRFTISRDNAKYSVYLQHNSLKRLDTAVYYCAARYGYDRNRRPGYVYWGQGTQVTVSS | low polyreactivity |
| QVQLVESGGGLVQAGGSLRLSCAGSGGIFGSNAMGWYREAPGKERALVAAISWRGGSTYYADSVKGRFTISRDNAKNSVYLQMNSLKPEDTAGYYCAARYRWGYSTSYSYRFHYWGQGTQVTVSS | high polyreactivity |
| QVHLVESGGGLVQAGGSLRLSCAASAFTFSQYAMGWYRQAPGKERELVAVISINGGSTYYADSVKGRFTISRDNAKNTVYLQMNSLKPEDTAVYYCAADDTDSEYYGYDYWGQGTQVTVSS | low polyreactivity |
| QVQLVESGGGLVQAGGSLRISCAASGFTFGPYDMGWYRQAPGKERELVAAITDSSGSTHYADSVKGRFTISRDNAKNTVYFQMNSLKPEDTAVYTCAADDSSRTTYYYWGQGTEVTVSS | low polyreactivity |
| QVQLVESGGGLVQAGGSLRLSCAASGSTFHPNAMGWYIQAPGKERQLVAAISRGGSTNYADSVKGRFTISRDNAKNTVYLQMNSLKPEDTAVYYCAKDFFGISSDPVDMDYWGQGTQVTVSS | low polyreactivity |
| QFQLVESGGGLVQAGGRLRLSCAASGVIFSYYAMGCYRQAPGKERELVAAISSSGSRTYYADSVKGRFTISRDNAKNTVYLQMNRLKPEDTAVYYCAARGAAKYGYWGQGTQVTVSS | high polyreactivity |
| QVQLVESGGGLVQAGGSLRLSCAASGLTFSYYAMGWSRQAPGKERELVAAISRGGRTNYADSVKGRFTISRDNAKNTVYLQMNSLKPEDTAVYYCAARFVVQGHSSPYDYWGQGTQVTVSS | high polyreactivity |
| QVQLVESGGGIVQAGGSLRLSCAASGRTFAGYAMGWYRQAPGKERELVAGISVDDSTTYYADSVKGRFTISRDNANNTVYLQMISLKPEDTAVYYCNADYIDTFRGFDYWGQGTLVTVSS | low polyreactivity |
| QVQLVESGGGLVQAGGSLRLSCAASGSTLVIYAMGWSRQAPGKEREFVAAIRWSTGRTYYADSVKGRFTISRDNAKNTVYLQMNSLKPEDTAVYYCNASYWAPNSLPDGFRYDSWGQGTQVTVSS | high polyreactivity |
| QVQLVESGGGLVQAGGSLRLRCAASGIIIYDYAMGWYRQAPGKERELVAAISSTAVGTYYADSVKGRFTISRDNAKNTVYLQMNSLKPVDTAVYYCAAAVSPHSEGFGEYNYWGQGTQVTVSS | low polyreactivity |
| QVQHVESGGGLVQAGGSLRLSCAASGSTLGGYAMGWSRQAPGKERELVAAISGSGGSTYYADSVKGRFTISRDNAKNSVYLQMNSLKPEDTAVYYCNAAVLGGIYRYYDYRYDYWGQGTQLTVSS | low polyreactivity |
| QVQLVESGGGLVQAGGSLRLSCAASGLIFPKYAMGWYRQAPGNEREFVAAISGRGGTTYYADSVKGRFTISRDNAKNTVYLQMNSLKPEDTAVYYCAAGGPWANIYGNGYWGQGTQVTVSS | high polyreactivity |
| QVQLVESGGGLVQAGGSLRLSCAASGRIFVSYAMGWYRQAPGKERELVADMSWSGSITYYADSVKGRFTISRDNAKNTVYLQMNSLKPEDTAVYYCAKKSIYDYSTTYPEYDYWGQGTQVTVSS | low polyreactivity |
| QVQLVESGGGLVQAGGSLRLSCAASGRTFPSNAMGWYRQAPGKEREFVASITYSGGRTYYADSVKGRFTISRDNAKNTVYLQVNSLKPEDTAVYYCAAYPQFWYLDYNYWGQGTQVTVSS | high polyreactivity |
| QVQLVESGGGLVQAGGSLRLSCAASGRTFRFYAMGWYRQAPGKERELVASISSSGGSTYYADSVKGRFTISRDNAKNTVYLQMNSLKPEDTAVYYCNADVTNWEDDYYYWGQGTQVTVSS | high polyreactivity |
| QVQLVESGGGLVQAGGSLRLSCAASGFIFDIYAMGWYRQAPGKERELVAAITWNSGSTHYADSVKGRITISRDNAKNTVYLQMNSLKPEDTAVYYCAADEVTYAYYPYDYWGQGTQVTVSS | low polyreactivity |
| QVQLVESVGGLVQAGGSLRLSCAASGFIFKRYAMGWYRQAPGKERELVAAITGSGGSTYYADSVKGRFTISRDNAKNTVYLQMNSLKPEDTAVYYCARGNGGSLDYWGQGTQVTVSS | high polyreactivity |
| QVQLVESGGGLVQAGGSLRLSCAASGFIIQGNAMGWYRQAPGKERELVAAISSSVSTYYADSVKGRFTISRDNAKNTVYLQMNSLKPEDTAVYYCNAGFPLSLWLGDYWGQGTQVTVSS | low polyreactivity |
| QVQLVESGGGLVQAGGSLRLSCAASGSIFEVYAMGWYRQAPGKEREFVATISGSGGSTYYADSVKGRFTISRDNAKNTVYLQMNSLKPEDTAVYYCAASIAWYSSFVITYYYWGQGTQVTVSS | low polyreactivity |
| PVQLVESGGGLVQAGGSHRVICAASGRIFYVDAMGWSTQAPGKERELVADMSRGGSTNYADSVKGRFTISRDNAKKTVYLQMNRLKPEDTSVYYCNTDGLWSAEYDYWGQGTQVTVSS | low polyreactivity |
| QVQLQESGAGPVLAGGSLRLSCAASGTIYVRLDMGWYRQAPGKEREFVATIGSGSSTYYADSVKGSFTISRDNVKNTVYLQMNSLNPEVTAVYYCAVSAAEQSRHYYWAQGTQVTVSS | low polyreactivity |

| Sequence | polyreactivity (PSR sort gate) |
| --- | --- |
| QVQLQESGGGLVQARGSLRLICAASGNISVTGFMGWYRQAPCKERELVASIGIGGTTYYADSVKGRFSISRDNAKNTVYLQMNSLKPEDTAVYYCAARYLYYAYSYWGQGTQVTVIS | low polyreactivity |
| QVQLVESGGGLVQAGGSLRLSCAASGSIFYTNAMGWYRQAPGKERELVAAITGGGRTNYADSLKGRFTISRDNAKNTVYLQMNSLKPEDNAVYYCAARTGYRYYTGDYWGQGTQVTVSS | high polyreactivity |
| QVQLVESGGGLVQAGGSLRLSCAASGSTFGYNAMGWYRQAPGKERELVAGITGSGTRTYYADSVKGRFTISRDNAKNTVYLQMNSLKPEDTAVYYCAATPTRRYYRQSAYDYWGQGTQVTVSS | high polyreactivity |
| QVQLVESGGGLVQAGGSLRLSCAASGSTFGTYAMGWYRQAPGKERELVAAISNSGGSTYYADSVKGRFTISRDNAKNTVYLQMNSLKPEDTAVYYCNTDGLVRNGPFYSWGQGTQVTVSS | low polyreactivity |
| QVQLVESGGGLVQAGGSLRLSCAASGLIFRHYVMGWYRQAPGKERELVAAITSRGGTTYYADSVKGRFTISRDNAKNTVYLQMNSLKPEDTAVYYCATVHSYTIQRYDYWGQGTQVTVSS | high polyreactivity |
| QVQLVESGGGLVQAGGSLRLSCAASGRIFSNNAMGWYRQAPGKERELVAAISSSGSTYYADSVKGRFTISRDNAKNTVYLQINSLKPEDTAVYYCAVVYGYPYLRGYVFGFNYWGQGTQVTVSS | low polyreactivity |
| QVQLVESGGGLVQAGGSLRLSCAASGRTFTYYAMGWYRQAPGKERELVAAISWSGDDTYYADSVKGRFTISRDNAKNTVYLQMHSLKPEDTAVYYCAAEGGGVYSDYRENTGEDYWGQGTQVTVSS | low polyreactivity |
| QVHLVESGGGLVQAGGSHRLSCAASGSIFRYNAMGWYRQAPGKEREFVAIISYSGVRTYYADSVKGRFTISRDNAKNTVYLEMNSLKPEDTAVYYCAADFKQKGHRTRTTYWGQGTQVTVSS | high polyreactivity |
| QVQLVESGGGLVQAGGSLRLSCAASGLTFVYYAMGWYRQAPGKERELVAVISSSGGSTYYADSVKGRFTISRDNAKNTVYLQMNSLKPEDTAVYYCAAPRQVYYQTDNDYWGQGTLVTVSS | high polyreactivity |
| QVQLVESGGGLVQAGGSLRLSCAASGSIFKYNAMGWYRQAPGKEREFVAAISRSGGSTYYADSVKGRFTISRDNAKNTVYLQMNSLKPEDTAVYYCATTSRYSWSDYWGQGTQVTVSS | high polyreactivity |
| QVQLVESGGGLVQAGGSLRLSCSASGSTSGKYAMGWYRQAPGKESELVAGITKGGGGTYYADSVKGRFTISRDNAKNTVYLQMNSLKPEDTAVYYCAKYYGSGYYIYDYWGQGTQVTVSS | low polyreactivity |
| QVQLVESGGGLVQAGGSLRLSCAASGITFDYYAMGWYRQAPGKERELVAAISRSGGSTYYADSVKGRFTISRDKAKNTVYLQMNSLKPEDTAVYYCAAYALTIRAYYYWGQGTQVTVSS | high polyreactivity |
| QVQLVESGGGLVQAGGSLRLSCAASGSIFSSYAMGWYRQAPGKERELVATITSSGGSTYYADSVKGRFTISRDNAKNTVYLQMNSLKPADTAVYYCAASYHTSYSLRRYYYWGQGTQVTVSS | low polyreactivity |
| QVQLVESGGGLVQAGGSLRLSCAASGFTFSYYAMGWYRQAPGKERELVAAISSGGSTYYADSVKGRFTISRDNAKNTVYLQMNSLKPEDTAVYYCNVLNYSSRHYLFSYDYWGQGTQVTVSS | high polyreactivity |
| QVQLVQSGGCLVQAGGSLRLSCAASGSTIGDNAMGWYRQAPGKERELDAAIDYSGGSTRYADSVKGRFTISRDNAKNTVYLQMNSLKPEDTAVYYCAADYASGSRLFPKTLDYWGQGTQVTVSS | low polyreactivity |
| QVQLVESGGGLVQAGGSLRLSCAASGSTYLINAMGWYRQAPGNERELVAAISDSGGSTHYADSVKGRFTISRDHAINTVYLHMKSLNPEDTAVYYCAATIPTTLILYGYWGQGTQVTVSS | low polyreactivity |
| QVQLVESGGGLVQAGGSLRLSCAASGIIFRYYAMGWYRQAPGKERELVAVITGRGGGTYYADSVKGRFTISRDNAKNTVYLQMNSLKPEDTAVYYCAKDFTGHYPKGFDYWGQGTQVTVSS | low polyreactivity |
| QVQLVESGGGLVQAGGSLRLSCAASGSIFAWYAMGWYRQAPGKERELVATITWSGGSTYYADSVKGRFTITRDNAKNTVYLQINSLKPEDTAVYYCAAEVVGIWYDLWYQGDYWGQGTQVTVSS | low polyreactivity |
| QVQLVESGGGIVQAGGSLRLSCAASGFIFKKYVMGWYRQAPGKERELVAGISRSGGSTYYADSVKGRFTISRENAKITVYFQMNSLKPEDTAVYYGAAYIYQSPTRGGGYWGQGTQVTVSS | high polyreactivity |
| QVQLVESGGGLVQAGGSLRLSCAASGRTFLVNAMGRYREAPGKVREFVAAITSRSGRTNYADSVKGRFTISRDNAKNTLYLQMNRLQPEDTAVYYCNAEGYTVKYWYSRYDYWGQGTQVTVSS | high polyreactivity |
| QVQLVESGGGLVQAGGSLRLSCASSGSIFRFNVMGWYRQAPGKERELVAAITRGDSTNYADSVKGRFTISRDNAKNTVYLQMNSLKPEDTAVYYCNARLYVPYRYDYWGQGTQVTVSS | low polyreactivity |
